Data as given in patent US20240016928A1 (SCHOLAR ROCK, published 2024).

Experiments:
latent TGFβ3 = biological target: T1, latent TGFβ3 (Homo sapiens (Human), UniProt P10600 21-412, limits assumed); experiment: Octet (bio-layer interferometry)
T1 sequence: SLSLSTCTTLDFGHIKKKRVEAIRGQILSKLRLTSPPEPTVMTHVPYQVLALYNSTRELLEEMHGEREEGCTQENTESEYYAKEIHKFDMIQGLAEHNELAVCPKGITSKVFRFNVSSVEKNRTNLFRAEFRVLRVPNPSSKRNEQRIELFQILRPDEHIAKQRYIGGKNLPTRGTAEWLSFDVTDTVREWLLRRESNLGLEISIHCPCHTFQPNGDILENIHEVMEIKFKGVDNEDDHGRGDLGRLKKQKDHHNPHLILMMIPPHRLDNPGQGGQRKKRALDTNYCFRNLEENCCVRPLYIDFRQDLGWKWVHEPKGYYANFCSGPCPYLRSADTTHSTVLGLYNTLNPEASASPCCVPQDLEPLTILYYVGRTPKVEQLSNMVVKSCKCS

latent TGFβ2 = biological target: T2, latent TGFβ2 (Chlorocebus aethiops (Green monkey) …, UniProt P61811 20-414); experiment: Octet (bio-layer interferometry)
T2 sequence: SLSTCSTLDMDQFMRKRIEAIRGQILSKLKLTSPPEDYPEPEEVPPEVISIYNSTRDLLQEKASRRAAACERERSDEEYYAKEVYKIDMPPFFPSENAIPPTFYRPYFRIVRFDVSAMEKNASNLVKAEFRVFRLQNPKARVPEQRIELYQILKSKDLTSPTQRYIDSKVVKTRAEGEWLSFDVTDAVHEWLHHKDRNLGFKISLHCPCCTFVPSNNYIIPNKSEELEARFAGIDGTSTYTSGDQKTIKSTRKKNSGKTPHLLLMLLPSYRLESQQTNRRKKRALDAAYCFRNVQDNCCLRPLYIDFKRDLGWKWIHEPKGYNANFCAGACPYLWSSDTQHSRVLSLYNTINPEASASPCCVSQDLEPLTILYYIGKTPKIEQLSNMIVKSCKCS

binding result (latent TGFβ3): no binding
binding result (latent TGFβ2): no binding
B1: Ab3 (antibody, V domains shown)
VH: EVQLLESGGGLVQPGGSLRLSCAASGFTFRNYAMSWVRQAPGKGLEWVSSISGSGGATYYADSVKGRFTISRDNSKNTLYLQMNSLRAEDTAVYYCARVSSGHWDFDYWGQGTLVTVSS
VL: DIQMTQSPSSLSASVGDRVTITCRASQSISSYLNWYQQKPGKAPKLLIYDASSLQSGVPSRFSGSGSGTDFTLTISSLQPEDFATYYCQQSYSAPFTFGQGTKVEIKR
notes: described as a fully human monoclonal antibody; Ab3-mIgG1 was used in vivo
